# Reference: US12467929
# Experiments:
# [1] = molecular target: UBE3A standard protein (ab206157, Abcam) (Homo sapiens (Human)) (UniProt Q05086); test: Singulex sandwich; capture GTX101092; UBE3A 2500 pg/ml
# [2] = molecular target: UBE3A standard protein (Abcam, ab125736) (Homo sapiens (Human)) (UniProt Q05086); test: Singulex sandwich; capture GTX10488; interpolated UBE3A 256.41 pg/mL
# [3] = molecular target: UBE3A standard protein (ab206157, Abcam) (Homo sapiens (Human)) (UniProt Q05086); test: Singulex sandwich; capture GTX101092; UBE3A 5000 pg/ml
# [4] = molecular target: UBE3A standard protein (ab206157, Abcam) (Homo sapiens (Human)) (UniProt Q05086); test: Singulex sandwich; capture GTX101092; UBE3A 1250 pg/ml
# [5] = molecular target: UBE3A standard protein (Abcam, ab125736) (Homo sapiens (Human)) (UniProt Q05086); test: Singulex sandwich; capture GTX10488; interpolated UBE3A 2039.33 pg/mL
# [6] = molecular target: UBE3A standard protein (ab206157, Abcam) (Homo sapiens (Human)) (UniProt Q05086); test: Singulex sandwich; capture GTX101092; UBE3A 39.063 pg/ml
# [7] = molecular target: UBE3A standard protein (Abcam, ab125736) (Homo sapiens (Human)) (UniProt Q05086); test: Singulex sandwich; capture GTX10488; interpolated UBE3A 31.06 pg/mL
# [8] = molecular target: UBE3A standard protein (ab206157, Abcam) (Homo sapiens (Human)) (UniProt Q05086); test: Singulex sandwich; capture GTX101092; UBE3A 312.5 pg/ml
# [9] = molecular target: UBE3A standard protein (Abcam, ab125736) (Homo sapiens (Human)) (UniProt Q05086); test: Singulex sandwich; capture GTX10488; interpolated UBE3A 3.39 pg/mL
# [10] = molecular target: UBE3A standard protein (ab206157, Abcam) (Homo sapiens (Human)) (UniProt Q05086); test: Singulex sandwich; capture GTX101092; UBE3A 19.531 pg/ml
# [11] = molecular target: UBE3A standard protein (Abcam, ab125736) (Homo sapiens (Human)) (UniProt Q05086); test: Singulex sandwich; capture GTX10488; interpolated UBE3A 10.59 pg/mL
# [12] = molecular target: UBE3A standard protein (Abcam, ab125736) (Homo sapiens (Human)) (UniProt Q05086); test: Singulex sandwich; capture GTX10488; interpolated UBE3A 661.46 pg/mL
# [13] = molecular target: UBE3A standard protein (ab206157, Abcam) (Homo sapiens (Human)) (UniProt Q05086); test: Singulex sandwich; capture GTX101092; UBE3A 9.766 pg/ml
# [14] = molecular target: UBE3A standard protein (ab206157, Abcam) (Homo sapiens (Human)) (UniProt Q05086); test: Singulex sandwich; capture GTX101092; UBE3A 156.25 pg/ml
# [15] = molecular target: UBE3A standard protein (Abcam, ab125736) (Homo sapiens (Human)) (UniProt Q05086); test: Singulex sandwich; capture GTX10488; interpolated UBE3A 78.6 pg/mL
# [16] = molecular target: UBE3A standard protein (ab206157, Abcam) (Homo sapiens (Human)) (UniProt Q05086); test: Singulex sandwich; capture GTX101092; UBE3A 78.125 pg/ml
# [17] = molecular target: UBE3A standard protein (Abcam, ab125736) (Homo sapiens (Human)) (UniProt Q05086); test: Singulex sandwich; capture GTX10488; interpolated UBE3A ND
# [18] = molecular target: UBE3A standard protein (ab206157, Abcam) (Homo sapiens (Human)) (UniProt Q05086); test: Singulex sandwich; capture GTX101092; UBE3A 10000 pg/ml
substance,measurement,setting,value
anti-UBE3A antibody H00007337-M02 (AbNova),AvgDE,[1],6430 DE
same,DE Mean,[2],4910 DE
same,DE S/N,[2],11.9
same,EP Mean,[2],926000 EP
same,S-N,[2],4290 DE
same,AvgDE,[3],10700 DE
same,AvgDE,[4],4130 DE
same,DE Mean,[5],13600 DE
same,DE S/N,[5],33.1
same,EP Mean,[5],5.69e+06 EP
same,S-N,[5],13000 DE
same,AvgDE,[6],289 DE
same,DE Mean,[7],925 DE
same,DE S/N,[7],2.3
same,EP Mean,[7],143000 EP
same,S-N,[7],470 DE
same,AvgDE,[8],1610 DE
same,DE Mean,[9],461 DE
same,DE S/N,[9],1.1
same,EP Mean,[9],71800 EP
same,S-N,[9],13 DE
same,AvgDE,[10],208 DE
same,DE Mean,[11],585 DE
same,DE S/N,[11],1.4
same,EP Mean,[11],91300 EP
same,S-N,[11],136 DE
same,DE Mean,[12],9340 DE
same,DE S/N,[12],22.7
same,EP Mean,[12],2.27e+06 EP
same,S-N,[12],8460 DE
same,AvgDE,[13],112 DE
same,AvgDE,[14],922 DE
same,DE Mean,[15],1770 DE
same,DE S/N,[15],4.3
same,EP Mean,[15],291000 EP
same,S-N,[15],1170 DE
same,AvgDE,[16],559 DE
same,DE S/N,[17],1
same,AvgDE,[18],12700 DE
